{
  "source": "IntAct's records for PubMed 27519415",
  "parents": {"B1": {"name": "Glutaredoxin-3 (Homo sapiens), O76003 (parent)", "chain": "MAAGAAEAAVAAVEEVGSAGQFEELLRLKAKSLLVVHFWAPWAPQCAQMNEVMAELAKELPQVSFVKLEAEGVPEVSEKYEISSVPTFLFFKNSQKIDRLDGAHAPELTKKVQRHASSGSFLPSANEHLKEDLNLRLKKLTHAAPCMLFMKGTPQEPRCGFSKQMVEILHKHNIQFSSFDIFSDEEVRQGLKAYSSWPTYPQLYVSGELIGGLDIIKELEASEELDTICPKAPKLEERLKVLTNKASVMLFMKGNKQEAKCGFSKQILEILNSTGVEYETFDILEDEEVRQGLKAYSNWPTYPQLYVKGELVGGLDIVKELKENGELLPILRGEN", "partner": "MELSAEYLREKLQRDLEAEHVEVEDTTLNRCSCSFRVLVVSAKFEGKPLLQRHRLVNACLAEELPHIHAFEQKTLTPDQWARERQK"}, "B2": {"name": "Glutaredoxin-3 (Homo sapiens), O76003 (parent)", "chain": "B1 chain"}},
  "data": [
    {"variants_of": "B1", "conditions": "with bola2_human BOLA2, Q9H3K6", "values": [
      {"variant": "C261S;W299D;P300A", "effect of a mutation on the interaction": "decreasing interaction strength"},
      {"variant": "C159S;W197D;P198A;C261S;W299D;P300A", "effect of a mutation on the interaction": "disrupting interaction strength"},
      {"variant": "C159S;W197D;P198A", "effect of a mutation on the interaction": "decreasing interaction strength"}
    ]},
    {"variants_of": "B2", "conditions": "with cpin1_human CIAPIN1, Q6FI81", "values": [
      {"variant": "C159S;W197D;P198A;C261S;W299D;P300A", "effect of a mutation on the interaction": "disrupting interaction strength"}
    ]}
  ]
}
